± gives the uncertainty stated by the source.
test: amyloid nucleation score (Sup35N fusion, yeast selection) (log enrichment); library NNK2; higher = more nucleation; inactive = no reads after selection
How it was run: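 Nucleation score: DiMSum log enrichment of output over input reads, centred on the mode score of non-aggregating sequences. Only sequences with at least 100 input reads were kept. Reads came from Illumina sequencing of plasmid inserts before and after 7 days of growth at 30°C without adenine and uracil, in psi-negative yeast expressing Sup35N fused to peptides of 20 random codons after 24 hours of induction with 100 μM copper sulfate.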

Row | Substance | amyloid nucleation score
1 | VSVGWRVAVWWILKWEHLSR | 9.541 ± 0.034
2 | SAINIFGALAKCFMVMLALF | inactive
3 | GLCKTVSWRNSSLEKDLFGR | -0.813 ± 0.78
4 | YSLYINLSNAGIGVYPLKPA | 7.252 ± 0.062
5 | HFLSFSMGWNSC | 4.82 ± 0.063
6 | MGNLCCVPRYYMHQVEYPRF | inactive
7 | LAKWGKLCCVLYQYPVSLGE | 0.71 ± 0.28
8 | NLYSLPQEDRSLNDEKGG | 0.121 ± 0.49
9 | IRNLLCVSYGCTGYMMVGHG | 4.68 ± 0.063
10 | FAWGPFA | -0.557 ± 0.37
11 | VEGLNCVLSDNKVANGS | -0.791 ± 0.44
12 | ICFVFF | -0.777 ± 1
13 | SMRISHTGAQQDLDDCAMRK | 0.635 ± 0.65
14 | LYLSFKGRREFFVIYLKFHS | inactive
15 | MVAGDKRDGG | 2.39 ± 0.07
16 | GFWEGRILG | 2.61 ± 0.22
17 | CTAQRNGKYDHGEDSLRLSR | 1.49 ± 0.36
18 | PDAIVSGVEHAKGTSDAALS | -0.15 ± 0.28
19 | TETTVFILLFWLLVILGRVH | inactive
20 | SLNVVMGAD | -1.15 ± 0.76
21 | SSKRVMKYRCDRWMADTCRK | 0.201 ± 0.8
22 | KYYCATSSVFYASSRQMFKS | -0.267 ± 0.49
23 | TRAPGRDFVGEGEACALDET | -0.799 ± 0.54
24 | TSIMPDSFFRSLKVSF | -0.249 ± 0.56
25 | IAVYTYLAGAWKHLETLAFP | 3.8 ± 0.1

Row | Substance | amyloid nucleation score
26 | LVLTDSAYRFFKRGDSVDKC | 1.62 ± 0.1
27 | CLAFNFVFIHPSTGAFSRTS | 8.38 ± 0.072
28 | MCCYVSCQ | 2.55 ± 0.12
29 | SKSAPC | 0.39 ± 0.29
30 | ACQPVWIESRFSLAERTRLS | 0.012 ± 1
31 | VKYVIIEHFNWSVSCCAYLR | 1.37 ± 0.23
32 | CMKAYKIRLLVLEDINSSFS | -1.85 ± 0.48
33 | CWRNTDLKGLGNWPSLLASV | 0.589 ± 0.57
34 | SLHVTGWFTSDVVFNLWVDV | -0.145 ± 0.48
35 | CVFISLNMNKIYMLDNSGQW | 8.445 ± 0.036
36 | LGSDMRLRMTYCPKRCVRWH | 2.77 ± 0.14
37 | SVTRWEHAMAVPKKLLHSGR | 1.05 ± 0.23
38 | ACCRTNFATLVLKEKMNLD | 0.326 ± 0.3
39 | SLAPQMLPCHFSWILDPCC | -0.01 ± 1
40 | IFVGIIKIVCWNNEGVDDLQ | 4.61 ± 0.063
41 | GEFSLF | 0.2 ± 0.37
42 | DPKHATYAKQRSGMYRYGHW | 0.691 ± 0.43
43 | PRDNSQVLILLNW | 5.424 ± 0.041
44 | YNCCVKISVSM | 5.481 ± 0.042
45 | LSLMTSLRWIGHSSFIVSKP | -0.168 ± 0.79
46 | VMFTGHCVTRNDRDRLVLTY | -0.522 ± 0.76
47 | KMTLLFARQFGV | 2.93 ± 0.12
48 | LPILCTWLM | -0.347 ± 0.55
49 | FEFVYFVRSIG | -0.129 ± 0.5
50 | SVYDTKHLLNLLDSAVISNH | -0.481 ± 0.76

Row | Substance | amyloid nucleation score
51 | LRFYERDILSILLFLMMMFV | -1.07 ± 0.63
52 | ETYWWRQRLNSRLAFNWH | 5.16 ± 0.098
53 | DLQSRDYPMADIVHIGIQRH | -0.754 ± 0.34
54 | EVTWDVLAIVLTLMKKA | 4.27 ± 0.083
55 | TYLKHVRKS | 1.11 ± 0.24
56 | RYSFSLMGFDSKGNKVGIMS | 3.65 ± 0.06
57 | FGINSLYINKWSDRLRQCTR | -0.142 ± 0.79
58 | TTTCLMLLRVNFNTALLIRN | -1.41 ± 0.49
59 | PHCRSLETH | -0.083 ± 0.33
60 | CSKDMSQKLVYRLWSIIVMA | -0.542 ± 0.33
61 | FAIGR | -0.077 ± 0.36
62 | FLYQEPSSCVTTAKISGLMA | inactive
63 | FEDIFCWVY | -1.79 ± 0.76
64 | AIWGTHPQRRDIRKRERIVV | -0.205 ± 0.27
65 | RLQSSRSGVKAL | 0.208 ± 0.8
66 | LVWGVP | -0.945 ± 0.76
67 | DANLLFGYFPCPCT | inactive
68 | YIECFTSMQLP | -0.397 ± 0.79
69 | SGMGSSYLFQFGSMYAFDDC | 0.636 ± 0.34
70 | FSMPLLALAFLL | inactive
71 | VEGLQ | inactive
72 | LDPLRPG | 1.14 ± 0.39
73 | TEDDCGK | 0.975 ± 0.17
74 | GSWLCCSLRWSSSALGVGWA | 1.12 ± 0.39
75 | NWKANYEFVRLIVVLLSSRR | 0.202 ± 0.64

Row | Substance | amyloid nucleation score
76 | WVYRLMLTMLR | -0.055 ± 0.41
77 | NSLYRGRRHRAYDINVSFVK | -0.392 ± 0.48
78 | VWSPYKTV | -0.101 ± 1.1
79 | PAVWVN | -0.34 ± 0.56
80 | GRIILTLFNYYT | 6.878 ± 0.062
81 | IRWNTTFGFDSEAPTCCATS | 0.026 ± 0.8
82 | VKTRTFRTCRSHRIEFMDWV | -0.064 ± 1.1
83 | DISCCLYRDTPVWERKDYVA | -0.506 ± 1
84 | EVLSRDRSSAPFAVLLAGSR | 0.129 ± 0.76
85 | GGPSGQFCYPGGNKGYCN | -0.724 ± 1
86 | LFISFAACGTF | 2.09 ± 0.11
87 | YILLFSVGICPPRSWLIYCP | 4.21 ± 0.11
88 | PLVLSFFRAIYSYYCNWKTC | -0.649 ± 0.64
89 | IAFFGLCMSRVSLGVLEMRL | 2.21 ± 0.18
90 | FRTTALLRFKRWDYGVIRNR | 0.021 ± 0.46
91 | CDSVVKRIFGTFAGVHLHME | -0.228 ± 1.1
92 | SCFPM | -1.67 ± 0.62
93 | VCFRYGEYLNVKIF | -0.789 ± 0.63
94 | RLNCLSTWIVYCGPGYVSSV | -0.571 ± 0.45
95 | SEMGTVRRYCLRAYRVCVAY | 0.757 ± 0.57
96 | TYGLVTRTGAV | 0.247 ± 0.43
97 | NWLCRWWQGWNLT | 0.739 ± 0.28
98 | NGLSSSTWGPWMYCWCVNMV | 8.751 ± 0.057
99 | RTRTYL | inactive
100 | KIWDCSMYTF | -1.07 ± 0.55

Row | Substance | amyloid nucleation score
101 | RRRPRGLEGFAERGLGDWTY | 1.36 ± 0.44
102 | SLHLRRYIFNT | 7.339 ± 0.059
103 | FLQLLDNFALLDLVG | -0.12 ± 0.79
104 | ICFNDILQFTS | -0.498 ± 0.44
105 | MFASNLRKMSGGGVI | -0.694 ± 1.1
106 | LNFGMY | -0.772 ± 0.78
107 | LRASWLYYFKSKVSFGCKGD | -0.405 ± 0.41
108 | MVGNWDSV | -0.011 ± 0.49
109 | LNNRLVFSKVHGCRICNRRS | inactive
110 | FINLYRVGVVCFILNKVGYF | 3.71 ± 0.052
111 | GVFSLRKGGCRDW | -0.567 ± 1.1
112 | SAWQRIEWL | -0.339 ± 0.64
113 | NFPMSSFKEEIWLRTRVPLC | 0.691 ± 0.66
114 | CTVLSDRTCYSSTERLVRIH | inactive
115 | NPYKLTLPLTSLLLYSIPRA | -0.127 ± 1.1
116 | CLLHGCHYLSSYLKFSQSWL | inactive
117 | NYFSTDMGFCLRDTYCRCEI | 4.68 ± 0.089
118 | VKIWDHKCSLRGYWVKWMIG | 1.45 ± 0.3
119 | MGSGYSQCAGRGWARVERLG | 1.44 ± 0.3
120 | FSLWSLERLKPIGLSSRMSG | 3.45 ± 0.16
121 | VNNGLPDCFSLRYAVHPMRL | -0.526 ± 0.64
122 | VISSLSISCYDHSVYVKAVK | 0.445 ± 0.33
123 | SVFGTLFDYGRRSTTFNGLK | inactive
124 | GSEECTLTDCRGSRQDILKR | 0.078 ± 0.77
125 | YGSLVYVPAYGEISL | -0.921 ± 0.5

Row | Substance | amyloid nucleation score
126 | FGFYFLVSGLCRCDLPFHVL | -0.757 ± 0.76
127 | RYYGRPFRVLYRWSVREYYT | 4.395 ± 0.04
128 | SCTDLLYDIDCIHSHECLLL | -0.397 ± 0.35
129 | MKVLGNCISQIVNMDVWLLF | -1.73 ± 0.47
130 | RGWRAGMYFACF | 0.656 ± 0.42
131 | CCHHR | 1.08 ± 0.28
132 | CMKEMLVMLTCYICVSKSLI | 3.66 ± 0.079
133 | TLGMYFFVSMLSLLVSVNGF | -0.427 ± 1.1
134 | YEGYLVSVQLRRMWDVQLGP | 3.79 ± 0.054
135 | LSLLSFGISASFVV | -1.18 ± 0.41
136 | FEGFNAMVSGLRYSSMGCFH | 0.334 ± 0.25
137 | SFGMQTEMYPGSIGLV | inactive
138 | NACYRFILISSMVRLSFSVW | 0.389 ± 0.8
139 | SRTAWVDLPDCWQVVKFGSV | -0.025 ± 1.1
140 | FSLICIKIHEKGWQGEG | 4.17 ± 0.065
141 | GYNLKILESIMEGSAGLMCT | -0.779 ± 0.33
142 | GRMWEMACFLATNMLGKSDS | 0.959 ± 0.29
143 | LLFLVCTSFNLDIQWNFALG | 4.76 ± 0.087
144 | DSLTQILTVSCVCYEESMRI | -0.613 ± 0.48
145 | FEYLYYIDIYLWYCEGRVAK | -0.661 ± 0.54
146 | EVLRKQIVRTRAVQVHFCLT | 1.15 ± 0.15
147 | KKVVLRPS | 4.97 ± 0.051
148 | DTLLSMAKRCLDSVFLGFPR | -0.134 ± 0.55
149 | GLKMLFNVNLQDM | -0.368 ± 1
150 | IGARFKFNQWTSYYIQRF | inactive

Row | Substance | amyloid nucleation score
151 | VFNILFSM | 9.098 ± 0.06
152 | VNVGKCNRTVGIWLLWKVNA | 0.584 ± 0.44
153 | RYTLRGSGEWLVHDTLGVTD | 0.267 ± 0.5
154 | CMARPMSVLECHSCWEDALG | 0.221 ± 0.31
155 | QDPFQIRLLVVLNFDNLYLW | 2.08 ± 0.1
156 | CKWTSKIWMRLVRKSEMSVE | 1.16 ± 0.27
157 | MFPVPLVNIGMPDRWVKEKD | 0.469 ± 0.34
158 | QMETSFL | -1.58 ± 1.1
159 | LYFRVNDEGVHFTCEGQKKE | 1.46 ± 0.17
160 | VVAPTKLLFKLPMALYVFVG | -0.299 ± 0.34
161 | QAHATFSILRTISAVFSPMQ | 5.973 ± 0.057
162 | APFQRPSSPTDREYRNGALL | 1.27 ± 0.23
163 | FFEFKDNSSWFK | 3.3 ± 0.052
164 | HRVQSGLCSKNSRE | 2.96 ± 0.15
165 | FVNLRFSKVGWYDLF | -0.255 ± 0.65
166 | SCSTYNDSSVYWFN | 2.04 ± 0.077
167 | HDKLVTRLYWYSKCVVKGLN | -0.375 ± 1.1
168 | LYTLTENRLRLYMIYAGLRW | -0.362 ± 0.5
169 | SVCVRT | inactive
170 | MSMLMRVRCEISVTTML | 4.498 ± 0.031
171 | DEIIQRWIFNFIWDRLFYLR | 0.94 ± 0.14
172 | NMRHI | 0.75 ± 0.41

From the supplement of paper PMC12042874
